# Reference: article PMC2112911
# Where “and” joins values, the source holds several entries; their conditions need not be identical. Identical values can stand only once. Like-named read-outs stand apart in the source and are kept apart here.
# Key:
# [1] = biological target: Acanthamoeba myosin-II, 2.6 heavy chain phosphates per molecule (Acanthamoeba); test: sedimentation
# [2] = biological target: Acanthamoeba myosin-II, 2.6 heavy chain phosphates per molecule (Acanthamoeba); test: sedimentation; remark: listed apart in the source
# [3] = biological target: Acanthamoeba myosin-II, 2.6 heavy chain phosphates per molecule (Acanthamoeba); test: sedimentation; remark: listed apart in the source
# [4] = biological target: Acanthamoeba myosin-II, 2.6 heavy chain phosphates per molecule (Acanthamoeba); test: sedimentation; remark: listed apart in the source
# [5] = biological target: Acanthamoeba myosin-II, dephosphorylated, 0.8 heavy chain phosphates per molecule (Acanthamoeba); test: sedimentation
# [6] = biological target: Acanthamoeba myosin-II (Acanthamoeba); test: electron microscopy
# [7] = biological target: Acanthamoeba myosin-II (Acanthamoeba); test: electron microscopy; remark: listed apart in the source
# [8] = biological target: Acanthamoeba myosin-II, 4.9 heavy chain phosphates per molecule (Acanthamoeba); test: sedimentation
substance,measurement,setting,value
"Acanthamoeba myosin-II, 2.6 heavy chain phosphates per molecule (complex)",critical concentration,[1],26 µg/mL
same,critical concentration,[2],20 µg/mL and 15 µg/mL
same,critical concentration,[3],24 µg/mL and 32 µg/mL
same,critical concentration,[4],14 µg/mL and 18 µg/mL and 15 µg/mL
"Acanthamoeba myosin-II, dephosphorylated, 0.8 heavy chain phosphates per molecule (complex)",critical concentration,[5],18 µg/mL
Acanthamoeba myosin-II (complex),stoichiometry N,[6],16 and > 12
same,stoichiometry N,[7],> 35
"Acanthamoeba myosin-II, 4.9 heavy chain phosphates per molecule (complex)",critical concentration,[8],< 5 µg/mL
